Data from patent US20070054851A1.

Legend:
[1] = target: ErbB1 receptor (EGF receptor) on HeLa 229 cells (UniProt P00533); test: cell-based or functional assay
[2] = target: ErbB1 receptor (UniProt P00533); test: cell-based or functional assay

PEGylated betacellulin produced using the mPEG-ButyrALD-20K reagent, sequence (P35070 other isoform, or with tags, fused parts or gaps limits assumed): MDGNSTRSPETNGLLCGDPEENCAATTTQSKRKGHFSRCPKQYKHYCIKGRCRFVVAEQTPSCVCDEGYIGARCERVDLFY
PEGylated betacellulin produced using the mPEG-SMB-20K reagent, sequence (P35070 other isoform, or with tags, fused parts or gaps limits assumed): as above
UniProt P35070, sequence (P35070 other isoform, or with tags, fused parts or gaps limits assumed): as above

| Substance | activity % (phospho-EGFR pY1068 ELISA, HeLa cells; SEC column S70; 40 nM submitted to assay) [1] [%] | activity % (phospho-EGFR pY1068 ELISA, HeLa cells; SEC column S200; 40 nM submitted to assay) [1] [%] | activity in phospho-EGFR pY1068 ELISA on HeLa 229 cells, against unreacted betacellulin ([2]; scale: % reduction against unreacted betacellulin) | ELISA activity is equivalent to [BTC] nM (phospho-EGFR pY1068 ELISA, HeLa cells; SEC column S200; 40 nM submitted to assay) [1] [nM] | activity in phospho-EGFR pY1068 ELISA on HeLa 229 cells, against unreacted betacellulin (fold lower than unreacted betacellulin) [2] | ELISA activity is equivalent to [BTC] nM (phospho-EGFR pY1068 ELISA, HeLa cells; SEC column S70; 40 nM submitted to assay) [1] [nM] |
| --- | --- | --- | --- | --- | --- | --- |
| PEGylated betacellulin produced using the mPEG-ButyrALD-20K reagent (from UniProt P35070 32-111) (ligand) | 58 | 55 | < 50 |  |  |  |
| PEGylated betacellulin produced using the mPEG-SMB-20K reagent (from UniProt P35070 32-111) (ligand) | 26 | 34 |  | 14 | 3 |  |
| Unreacted (row label under 'PEGylation chemistry'; taken as the unreacted betacellulin fraction from the S70 size exclusion column) (from UniProt P35070 32-111) (ligand) | 0 |  |  |  |  | 0 |
